According to US20200297863A1, “ANTI-EGFR ANTIBODY DRUG CONJUGATES (ADC) AND USES THEREOF” (AbbVie Inc., priority 2017, published 2020):

Assays:
LoVo = LoVo colorectal adenocarcinoma xenograft model; format: in vivo, mice; conditions: administered at a much higher dose than the PBD conjugates
Experimental: Numbers in parentheses represent dose in mg/kg. Arrows represent days of dosing.
Both conjugates were administered at 0.5mg/kg on a q7dx6 regimen (where mice were dosed every 7 days for 6 weeks).

CTG-0162 = CTG-0162 patient-derived NSCLC xenograft model; format: in vivo; conditions: dosed ten-fold higher than the PBD ADCs
Excerpt: (§1) Numbers in parentheses represent dose in mg/kg, and arrows represent days of dosing.

CTG-9786 = CTG-9786 patient-derived head and neck cancer xenograft model; format: in vivo; conditions: much higher dose than the PBD ADCs
Excerpt: as §1

B1: AbA-MMAE: AbA conjugated to monomethyl auristatin E via a cleavable valine-citrulline (VC) linker; DAR about 3 (conjugate, chains of the INN, looked up)
VH: EVQLQESGPGLVKPSQTLSLTCTVSGYSISRDFAWNWIRQPPGKGLEWMGYISYNGNTRYQPSLKSRITISRDTSKNQFFLKLNSVTAADTATYYCVTASRGFPYWGQGTLVTVSS
VL: DIQMTQSPSSMSVSVGDRVTITCHSSQDINSNIGWLQQKPGKSFKGLIYHGTNLDDGVPSRFSGSGSGTDYTLTISSLQPEDFATYYCVQYAQFPWTFGGGTKLEIK
modifications: vc-MMAE payload, DAR about 3
- tumor response (LoVo): active in this model, with activity similar to that observed with Ab1(S239C)-PBD
- inhibition of tumor growth (CTG-0162): less efficacious
- inhibition of tumor growth (CTG-9786): effective, but required a much higher dose
